The values below come from patent US20260028421A1 (JIANGSU HENGRUI PHARMACEUTICALS, published 2026).

In test [1] the target is T1, hGUCY2C ECD-His (human, UniProt P25092 24-430).
T1 construct: also called human GUCY2C protein
The experiment in a line: SPR Biacore, antibody captured. The text has this: To test the affinity of the GUCY2C monoclonal antibodies of the present disclosure for GUCY2C, in this test example, the instruments Biacore 8K and Biacore T200 were used to detect the ability of the antibodies to bind to hGUCY2C-ECD-His (SEQ ID NO: 3). The specific method is as follows: The antibody was affinity-captured using a Protein A biosensor chip conjugated with an anti-human antibody, then a solution containing GUCY2C Protein flowed on the surface of the chip, and reaction signals were detected in real time with an instrument to obtain association and dissociation curves. After dissociation was completed for each cycle, the biosensor chip was washed with 10 mM glycine-hydrochloric acid (pH 1.5) for regeneration. Data fitting was performed using a 1:1 model.
On the technique in general: SPR reads the build-up and loss of mass on a sensor chip optically.

For test [2], the target named is hCTLA4 (human, UniProt P16410 36-161). Description: ELISA.
The target of test [3] is hPDL1 (human, UniProt Q9NZQ7 19-238). Description: ELISA.
Chain of hPDL1 (Q9NZQ7 19-238 limits assumed): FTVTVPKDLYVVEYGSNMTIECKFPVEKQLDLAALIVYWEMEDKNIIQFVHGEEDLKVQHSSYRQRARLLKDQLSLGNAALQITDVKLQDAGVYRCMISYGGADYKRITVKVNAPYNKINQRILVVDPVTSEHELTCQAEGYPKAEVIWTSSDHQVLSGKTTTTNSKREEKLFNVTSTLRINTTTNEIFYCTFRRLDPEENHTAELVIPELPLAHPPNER

Chain of hCTLA4 (P16410 36-161 limits assumed): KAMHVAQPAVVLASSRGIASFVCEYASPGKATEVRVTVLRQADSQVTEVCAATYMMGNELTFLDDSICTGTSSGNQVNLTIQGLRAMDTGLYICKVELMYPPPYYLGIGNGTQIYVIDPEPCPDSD

B1: P2-B9 CHI (antibody, human IgG1, kappa, V domains shown)
VH: QVQLQQPGAELVKPGASVKLSCKASGYTFSSYWMHWVKQRPGQGLEWIGMIHPKSDSVNNNEKFKNKATLTVDKSSSTVYLQLSSLTSEDSAVYSCARGGDSGYSMDYWGQGTSVTVSS
VL: DIVLTQSPASLAVSLGQKATISCKASKKVTIFGSISALHWYQQKPGQPPKLIYNGAKLESGVSARFSDSGSQNRSPFGNQLSFTLTIDPVEADDAATYYCLQNKEVPYTFGGGTKLEIKR
notes: chimeric
In general, Kd refers to the free concentration of one partner at which half of the binding sites on the other are occupied at equilibrium, for simple one-to-one binding. For orientation: koff means the rate constant with which the complex falls apart. Usually kon stands for a measure of how fast the partners come together. Read a low kon as slower complex formation. For the molecule B1, in test [1], the Kd is 3.02 nM, the koff came out at 0.000175 s⁻¹ and the on-rate (kon) was 58100 M⁻¹ s⁻¹.

B2: P3-E4 CHI (antibody, human IgG1, kappa, V domains shown)
VH: QVQLQQPGAELVMPGAAVKLSCKASGYTFINYWMHWLKQRPGQGLEWIGEIDPSDGYTDYNQKFKGKATLTVDKSSSTAYMQLSSLTSEDSAVYYCAISLRGPITFGPFPYWGQGTLVTVSS
VL: DIVLTQSPASLAVSLGQRATISCRASESVSIHGTHLMHWYQQKPGQPPKLLIYAASNLESGVPARFSGSGSETDFTLNIHPVAEEDAATYFCQHSIEDPRTFGGGTKLEIKR
notes: chimeric
As to B2, in test [1], the affinity, expressed as Kd, was 12.9 nM; the off-rate constant (koff) was found to be 0.000228 s⁻¹; the kon stood at 17700 M⁻¹ s⁻¹.

B3: P2-C8 CHI (antibody, human IgG1, kappa, V domains shown)
VH: EVQLQQSGPVLVKPGASVKMSCKVSGYTFTDYYMHWVKQSHGKSLEWIGLINPYNGVTSYNQKFKGKATLTVDKSSSTAYMELNSLTSEDSAVYYCARPPRAYGNYAGYWGQGTTLTVSS
VL: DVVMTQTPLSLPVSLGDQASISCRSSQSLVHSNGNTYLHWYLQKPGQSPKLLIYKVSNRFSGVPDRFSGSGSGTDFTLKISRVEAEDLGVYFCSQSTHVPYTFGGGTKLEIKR
notes: chimeric
In test [1], B3 returned a Kd of 5.12 nM, an off-rate constant (koff) of 0.000178 s⁻¹ and an on-rate (kon) of 34900 M⁻¹ s⁻¹.

B4: P3-D2 CHI (antibody, human IgG1, kappa, V domains shown)
VH: EVQLQQSGPVLVKPGASVKMSCKASGYTFTDYFMHWVKQSHGKSLEWIGLINPYSGGTTYNQKFKGKATLTVDKSSSTAYMELNSLTSEDSAVYYCARPPRAYGDYAGYWGQGTTLTVSS
VL: DVVMTQTPLSLPVSLGDQASISCRSSQSLVHSNGNTYLHWYLQKPGQSPKLLIYKVSNRFSGVPDRFSGSGSGTDFTLKISRVEAEDLGVYFCSQSTHVPLTFGTGTKLEIKR
notes: chimeric
In test [1], B4 showed an equilibrium dissociation constant (Kd) of 4.5 nM, a koff of 0.000173 s⁻¹ and an association rate constant (kon) of 38600 M⁻¹ s⁻¹.

B5: PL-4 (bispecific antibody)
chain 1: not shown
chain 2: DIVLTQSPASLAVSPGQRATITCRASESVSIHGTHLMHWYQQKPGQPPKLLIYAASKLESGVPARFSGSGSGTDFTLTINPVEAEDTANYYCQQSFEDPLTFGQGTKLEIKGGGGSGIPPKIECLPIDISIDEGKVLTVASCFTGEPTPEVTWSTGGRKIHSQEQGRFHIENTDDSTTLTIKDVQKQDGGLYTLTLRNEFGSDSATVNIHIRSI
chain 3: not shown
chain 4: not shown
As a reminder, the EC50 is the concentration that produces a half-maximal response. Regarding B5, the concentration for a half-maximal effect (EC50) in test [2] was 6.5 nM; in test [3], 0.7 nM.

B6: PL-9 (bispecific antibody)
chain 1: not shown
chain 2: DIVLTQSPASLAVSPGQRATITCRASESVSIHGTHLMHWYQQKPGQPPKLLIYAASKLESGVPARFSGSGSGTDFTLTINPVEAEDTANYYCQQSFEDPLTFGQGTKLEIKGGGGSGIPPKIECLPIDISIDEGKCLTVASAFTGEPTPEVTWSTGGRKIHSQEQGRFHIENTDDSTTLTIKDVQKQDGGLYTLTLRNEFGSDSATVNIHIRSI
chain 3: not shown
chain 4: not shown
B6: the EC50 in test [2] is 5.5 nM; in test [3], 0.6 nM.

B7: PL-12 (bispecific antibody)
chain 1: not shown
chain 2: DIVLTQSPASLAVSPGQRATITCRASESVSIHGTHLMHWYQQKPGQPPKLLIYAASKLESGVPARFSGSGSGTDFTLTINPVEAEDTANYYCQQSFEDPLTFGQGTKLEIKRTVASGIPPKIECLPIDISIDEGKCLTVASAFTGEPTPEVTWSTGGRKIHSQEQGRFHIENTDDSTTLTIKDVQKQDGGLYTLTLRNEFGSDSATVNIHIRSI
chain 3: not shown
chain 4: not shown
For the molecule B7, the 50% effective concentration (EC50) in test [2] came out at 8 nM; in test [3] it was 0.5 nM.

B8: PL-7 (bispecific antibody)
chain 1: not shown
chain 2: DIVLTQSPASLAVSPGQRATITCRASESVSIHGTHLMHWYQQKPGQPPKLLIYAASKLESGVPARFSGSGSGTDFTLTINPVEAEDTANYYCQQSFEDPLTFGQGTKLEIKGGGGSGIPPKIECLPIDISIDEGKVLTVASCFTGEPTPEVTWSTGGRKIHSQEQGRFHIENTDDSTTLTIKDVQKQDGGLYTLTLRNEFGSDSATVNIHIRSI
chain 3: not shown
chain 4: not shown
Regarding B8, the figures for the EC50 in test [2] and in test [3] were 7.3 nM and 0.5 nM, respectively.

B9: PL-14 (bispecific antibody)
chain 1: not shown
chain 2: DIVLTQSPASLAVSPGQRATITCRASESVSIHGTHLMHWYQQKPGQPPKLLIYAASKLESGVPARFSGSGSGTDFTLTINPVEAEDTANYYCQQSFEDPLTFGQGTKLEIKRTVASGIPPKIECLPIDISIDEGKVLTVASAFTGEPTPEVTWSTGGRKIHSQEQGRFHIENTDDSTTLTIKDVQKQDGGLYTLTLRNEFGSDSATVNIHIRSI
chain 3: not shown
chain 4: not shown
As for B9, the EC50 was 6 nM in test [2] and 1.3 nM in test [3].

B10: PL-11 (bispecific antibody)
chain 1: not shown
chain 2: DIVLTQSPASLAVSPGQRATITCRASESVSIHGTHLMHWYQQKPGQPPKLLIYAASKLESGVPARFSGSGSGTDFTLTINPVEAEDTANYYCQQSFEDPLTFGQGTKLEIKRTVASGIPPKIECLPIDISIDEGKVLTVASAFTGEPTPEVTWSTGGRKIHSQEQGRFHIENTDDSTTLTIKDVQKQDGGLYTLTLRNEFGSDSATVNIHIRSI
chain 3: not shown
chain 4: not shown
B10: the concentration for a half-maximal effect (EC50) in test [2] came out at 5.6 nM; in test [3], 0.6 nM.

B11: PL-10 (bispecific antibody)
chain 1: not shown
chain 2: DIVLTQSPASLAVSPGQRATITCRASESVSIHGTHLMHWYQQKPGQPPKLLIYAASKLESGVPARFSGSGSGTDFTLTINPVEAEDTANYYCQQSFEDPLTFGQGTKLEIKGGGGSGIPPKIECLPIDISIDEGKVLTVASCFTGEPTPEVTWSTGGRKIHSQEQGRFHIENTDDSTTLTIKDVQKQDGGLYTLTLRNEFGSDSATVNIHIRSI
chain 3: not shown
chain 4: not shown
Turning to B11, the half-maximal effective concentration (EC50) in test [2] amounted to 6.9 nM; in test [3], 0.6 nM.

B12: PL-13 (bispecific antibody)
chain 1: not shown
chain 2: DIVLTQSPASLAVSPGQRATITCRASESVSIHGTHLMHWYQQKPGQPPKLLIYAASKLESGVPARFSGSGSGTDFTLTINPVEAEDTANYYCQQSFEDPLTFGQGTKLEIKRTVASGIPPKIECLPIDISIDEGKVLTVASCFTGEPTPEVTWSTGGRKIHSQEQGRFHIENTDDSTTLTIKDVQKQDGGLYTLTLRNEFGSDSATVNIHIRSI
chain 3: not shown
chain 4: not shown
For B12, the EC50 in test [2] is 4.4 nM; in test [3] it was 0.5 nM.

B13: PL-5 (bispecific antibody)
chain 1: not shown
chain 2: DIVLTQSPASLAVSPGQRATITCRASESVSIHGTHLMHWYQQKPGQPPKLLIYAASKLESGVPARFSGSGSGTDFTLTINPVEAEDTANYYCQQSFEDPLTFGQGTKLEIKGGGGSGIPPKIECLPIDISIDEGKVLTVASAFTGEPTPEVTWSTGGRKIHSQEQGRFHIENTDDSTTLTIKDVQKQDGGLYTLTLRNEFGSDSATVNIHIRSI
chain 3: not shown
chain 4: not shown
For the molecule B13, the EC50 in test [2] is 6.7 nM; in test [3] it was 0.7 nM.

B14: P1-C6 CHI (antibody, human IgG1, kappa, V domains shown)
VH: QVQLQQSGAELARPGASVKLSCKASGYTFTSYGITWVKRRTGQGLGWIGEIYPRSGNTYYNEKFKGKATLTADKSSSTAYMELRSLTSEDSAVYFCARAITTVVGDWYFDVWGTGTTVTVSS
VL: DIVLTQSPASLAMSLGKRATISCRASESVSLIGTNLIHWYQQKPGQPPKLLIHHASNLEAGVPARFSGSGSRTDFTLTIDPVEEDDVAIYYCLQSRKIRTFGGGTKLEIKR
notes: chimeric
For the molecule B14, in test [1], the affinity, expressed as Kd, was 2.57 nM; the koff was found to be 0.000181 s⁻¹; the kon is 70700 M⁻¹ s⁻¹.
